Values belong to the binder of their own block, whether it stands above or below them.
Key:
[1] = target: T1, mouse APJ receptor expressed on CT26 cells (mouse, UniProt Q9WV08 1-377); test: binding to the surface of CT26 cells
T1 construct: whole, on cells
T1 sequence (looked up): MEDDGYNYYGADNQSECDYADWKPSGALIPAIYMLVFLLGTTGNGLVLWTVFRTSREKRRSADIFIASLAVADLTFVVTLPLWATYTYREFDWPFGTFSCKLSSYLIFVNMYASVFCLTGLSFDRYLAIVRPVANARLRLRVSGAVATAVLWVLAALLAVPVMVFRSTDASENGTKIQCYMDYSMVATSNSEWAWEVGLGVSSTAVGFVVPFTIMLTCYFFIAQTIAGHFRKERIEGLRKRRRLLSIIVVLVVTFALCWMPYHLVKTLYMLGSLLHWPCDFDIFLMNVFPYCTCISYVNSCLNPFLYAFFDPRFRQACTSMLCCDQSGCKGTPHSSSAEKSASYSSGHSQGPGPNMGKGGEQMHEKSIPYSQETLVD

[2] = target: T2, apelin (APJ) receptor on APJ-expressing cells (Homo sapiens (Human), UniProt P35414 1-380); test: cell-based or functional assay
T2 sequence: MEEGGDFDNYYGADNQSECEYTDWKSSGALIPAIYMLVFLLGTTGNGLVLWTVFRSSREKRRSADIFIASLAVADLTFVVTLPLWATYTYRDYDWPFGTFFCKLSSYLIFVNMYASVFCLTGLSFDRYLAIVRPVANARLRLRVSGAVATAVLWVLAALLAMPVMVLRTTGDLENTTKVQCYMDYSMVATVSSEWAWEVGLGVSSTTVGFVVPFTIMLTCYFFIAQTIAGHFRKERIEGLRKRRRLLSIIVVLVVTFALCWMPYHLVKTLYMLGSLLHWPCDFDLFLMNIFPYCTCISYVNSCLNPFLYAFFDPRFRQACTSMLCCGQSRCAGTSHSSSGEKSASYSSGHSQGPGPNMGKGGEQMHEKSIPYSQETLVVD

[3] = target: T2, apelin (APJ) receptor on APJ-expressing …; test: method not stated (Example 2)

Kd [1]: ~100 nM
B1: VHH-21 (VHH)
VHH: QVQLQESGGGLVQAGGSLRLSCAASGSISVGYLMGWYRQAPGKERELVAGINYGSNTYYADSVKGRFTISRDNAKNTVYLQMNSLKPEDTAVYYCAASQRRAYAARIDLFSYHTYWGQGTQVTVSS
notes: Nanobody; VHH-21-Fc (aglycosylated human IgG1 Fc) was used in vivo; also called negative allosteric modulator VHH-21

Fold suppression (saturated), β-arrestin signaling [2]: 8.5 fold
Ki [3]: 39 nM
B2: VHH-23 (VHH)
VHH: QVQLQESGGGLVQAGGSLRLSCAASGNISPFRAMGWYRQAPGKEREFVAAINTGAITNYADSVKGRFTISRDNAKNTVYLQMNSLKPEDTAVYYCAASCRAYASRIDLFSYHTYWGQGTQVTVSS
notes: Nanobody

Fold suppression (saturated), β-arrestin signaling [2]: 5.9 fold
Kd [3]: 13 nM
B3: VHH-22 (VHH)
VHH: QVQLQESGGGLVQAGGSLRLSCAASGNIFRGRVMGWYRQAPGKEREFVAGIDYGASTNYADSVKGRFTISRDNAKNTVYLQMNSLKPEDTAVYYCAARLSERRRLEGYWSAVHVYWGQGTQVTVSS
notes: Nanobody

— patent publication US20220220214A1 (AB INITIO BIOTHERAPEUTICS, published 2022)
